These results are taken from patent US20190085039A1 (OSAKA UNIVERSITY, published 2019).

This data set deals with the molecule itself. Put plainly: size exclusion gel filtration chromatography (Superdex 200 10/30, 20 mM HEPES pH 7.4, 150 mM NaCl); no self-association, elutes as a monomer. On the procedure: The solvent is 20 mM HEPES solution of pH 7.4 containing 150 mM NaCl. The larger the molecular weight/molecular volume, the faster the flow in the column. Therefore, peaks appear on the left side in the figure. The spectra indicated with dotted lines in FIG. 1 show the absorptions of 10 μM DsRed (tetramer), tdTomato (dimer), and mCherry (monomer) in order from the left. […] Since the peak position of mfGFP is almost the same as that of mCherry, it can be said that

B1: monomeric green-yellow fluorescent protein mfGFP (other)
chain: MVSKGEEASGRALFQYPMTSKIELNGEINGKKFKVAGEGFTPSSGRFNMHAYCTTGDLPMSWVVIASPLQYGFHMFAHYPEDITHFFQECFPGSYTLDRTLRMEGDGTLTTHHEYSLEDGCVTSKTTLNASGFDPKGATMTKSFVKQLPNEVKITPHGPNGIRLTSTVLYLKEDGTIQIGTQDCIVTPVGGRKVTQPKAHFLHTQIIQKKDPNDTRDHIVQTELAVAGNLWHGMDELYK
notes: It was purified with an N-terminal polyhistidine tag; not shown: N-terminal polyhistidine tag from the bacterial expression vector pRSETB
On to B1, for which the binding result was “no binding (tested: 10 µM)”.
